Measured values published in patent US20240009285A1 (REGENERATIVE RESEARCH FOUNDATION, published 2024).

Assays:
GFP-Tau-(0N4R) = GFP-Tau-(0N4R) (human, UniProt P10636-6 1-383); test: cell-based or functional assay
[1] = biological target: human α-synuclein protein (human, UniProt P37840 1-140); test: surface plasmon resonance (SPR); no numbers given

Sequence of GFP-Tau-(0N4R) (P10636 other isoform, or with tags, fused parts or gaps): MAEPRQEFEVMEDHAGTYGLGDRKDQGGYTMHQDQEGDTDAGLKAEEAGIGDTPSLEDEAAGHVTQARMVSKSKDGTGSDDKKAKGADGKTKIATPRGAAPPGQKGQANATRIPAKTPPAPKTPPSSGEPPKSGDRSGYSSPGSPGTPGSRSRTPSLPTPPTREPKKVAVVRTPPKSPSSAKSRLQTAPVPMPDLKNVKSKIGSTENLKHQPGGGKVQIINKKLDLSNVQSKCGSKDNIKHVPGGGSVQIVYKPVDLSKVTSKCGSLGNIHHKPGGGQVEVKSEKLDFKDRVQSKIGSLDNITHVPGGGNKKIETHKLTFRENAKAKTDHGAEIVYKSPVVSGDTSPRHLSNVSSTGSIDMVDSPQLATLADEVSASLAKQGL

Row | reduction of total tau vs EV-CON (western blot) (GFP-Tau-(0N4R)) | binding result [1] | Binder
1 | ~40% |  | scFv-V-hPEST-D433A (scFv, V domains shown) VH: QVQLVESGGGLVKPGGSLRLSCAASGFTFSSYAMSWVRQAPGKGLEWVAAISGSGDNTYYADSVKGRFTISRDNSENTVHLQMAGLRAEDTALYFCAKDGPEVGNPGGYFDFWGRGTLVTVSS
2 | ~40% |  | scFv-N-hPEST-D433A (scFv, V domains shown) VH: QVQLVESGGGLVKPGGSLRLSCAASGFTFSSYAMSWVRQAPGKGLEWVAAISGSGDNTYYADSVKGRFTISRDNSENTVHLQMAGLRAEDTALYFCAKDGPAVGNPGGYFDFWGRGTLVTVSS
3 | ~40% |  | scFv-N-hPEST-S445A (scFv, V domains shown) VH: QVQLVESGGGLVKPGGSLRLSCAASGFTFSSYAMSWVRQAPGKGLEWVAAISGSGDNTYYADSVKGRFTISRDNSENTVHLQMAGLRAEDTALYFCAKDGPAVGNPGGYFDFWGRGTLVTVSS
4 |  | binds | VHH-4C-N77D (VHH, Unfused nanobody as named in the SPR statement; also called VHH-N77D) VHH: VQLVESGGGGLVQPGGSLRLSCVTPGGIFSDYAMGWYRQAPGKQRELVADITVSDTTRYSDPVKGRFTISRDNAKDMVYLQMNSLKPEDAAIYTCNAQKWEDRYGSSERYDYWGQGTQVTVSS
